From US12618050B2, “Engineered polypeptides that exhibit increased catalytic efficiency for unnatural cofactors and uses thereof” (The Regents of the University of California, priority 2018, dated 2026)
“Also recorded” adds a separate entry of the source.

Assays:
[1] = XenA activity with different cofactors; type: biochemical; settings: ketoisophorone as substrate
Protocol: Enzyme assay conditions: The enzymatic buffer contained 200 mM phosphate buffer (pH 7.5), 5 mM ketoisophorone, and 0.2 mM NADPH, NADH, or NMNH, and appropriate amount of purified XenA protein. The initial reaction rate was quantified by absorbance variation at 340 nm using a spectrophotometer at 37° C. Reactions with no ketoisophorone added were performed to quantify the non-specific reaction rate. The net reaction rate as shown in FIG. 13 was calculated by subtracting the non-specific reaction rate from the total reaction rate. For generating NMNH, a microcentrifuge tube (2 mL) containing 35 mM Tris-HCl (pH 8.0), 4 mM NMN^+, 1 M NaCl and 140 mM glucose, was incubated for ˜3 hr at 30° C. with purified Bs GDH I195R. An aliquot of this reaction system was taken to measure the accumulation of NMNH by reading absorbance at 340 nm. The proteins in the reaction were removed by filtering the mixture with centrifugal filter units (Amicon Ultra-0.5 Centrifugal Filter Units, Millipore, USA). The solvent was evaporated, and the residue was collected to give NMNH as a yellowish oil.

[2] = XenA-GDH coupled cycling biotransformation of ketoisophorone to levodione; type: biochemical
Protocol: Coupled enzymatic biotransformation. All biotransformation reactions were performed in buffer A at 30° C. for 24 hours. Reaction buffer A, modified from that disclosed in Chaparro-Riggers et al., Advanced Synthesis & Catalysis 349(8-9):1521-1531 (2007)), contained 200 mM potassium phosphate buffer (pH 7.5), 1 M NaCl, 300 mM D-glucose, 6 mM NMN^+ (or NADP^+ as the positive control), and substrates. All assays were performed in triplicate, with no proteins or no cofactors added as negative controls. The protein loading for GDH variants was kept at 0.33 mg mL^−1 or 11.7 μM. The various enzymes for biotransformation reactions were added at the concentration of 0.75 mg mL^−1.
For XenA-GDH coupled cycling assays, the substrates ketoisophorone, citral, or trans-2-hexen-1-al were added at 33 mM, 10 mM, or 50 mM, respectively. For the OYE3-GDH coupled cycling assays, the substrate 4-phenyl-3-butyn-2-one was added at 5 mM. At various time points over 24 hours, 100 μL samples were taken and extracted with 100 μL ethyl acetate. Conversion was determined via GC-FID with octanol as an internal standard (see below). For NfsB-GDH coupled cycling assays, 2 mM nitrofurazone was used as the substrate. Nitrofurazone conversion was measured spectroscopically at 400 nm and quantification was performed using a standard curve. The initial levels of the above-mentioned substrates were mainly determined by their solubility in the assay buffer. For BM3-GDH coupled cycling assays, 50 μM cytochrome c (C2506 Sigma) was used as the substrate. The reduction of cytochrome c was measured spectroscopically at 550 nm. and the quantification was performed using extinction coefficient ε550 of 21.1 mM^−1 cm^−1.
Coupled cycling conditions: All biotransformation reactions were performed in buffer A at 30° C. for 24 hours. Reaction buffer A contained 200 mM potassium phosphate buffer (pH 7.5), 1 M NaCl, 300 mM D-glucose, 6 mM NMN^+. Substrate ketoisophorone was added at 5 g/L. At various time points over 24 hours, 100 μL samples were taken and extracted with 100 μL ethyl acetate. Conversion was determined via GC-FID with octanol as an internal standard (see below).

[3] = GDH enzymatic assay with NMN^+ as cofactor; type: biochemical; settings: for Kcat / Km: cofactor NMN^+
Protocol: (§1) GDH enzymatic assays. The GDH activity was measured as described in Hilt et al. (Biochimica et biophysica acta 1076(2):298-304 (1991)). The reactions were started by adding the purified protein to the assay mixture containing 35 mM Tris-HCl buffer (pH 8.0), 3 mM NAD^+, NADP^+ or NMN^+ and 140 mM glucose. The absorbance variation at 340 nm was detected by a spectrophotometer at 25° C.

[4] = GDH enzymatic assay with NAD^+ as cofactor; type: biochemical; settings: for Kcat / Km: cofactor NAD^+
Protocol: as §1

[5] = Protein expression levels of GDH variants; parameters: species or system Escherichia coli; settings: expressed in E. coli
Protocol: Proteins were purified as 6×His tag fusion at the N-terminus. E. coli BL21 (DE3) with plasmids were inoculated into LB medium with 200 mg L^−1 ampicillin. Cells were induced with 0.5 mM IPTG and expressed for 24 hours at 30° C. with shaking at 250 rpm. BM3 cytochrome P450 was extracted with the EMD Millipore™ BugBuste Plus Lysonase Kit and purified using the HisPur™ Ni-NTA Superflow Purification System according to the manufacturer's instructions. Other proteins were purified using His-Spin Protein Miniprep kit (Zymo Research Corporation, CA). The purified proteins were quantified by Bradford assay.

[6] = GDH enzymatic assay with NADP^+ as cofactor; type: biochemical; settings: for Kcat / Km: cofactor NADP^+
Protocol: as §1

E. coli strain MX103 = experiment: E. coli growth with NMN^+-dependent glycolysis; type: cell-based, Escherichia coli
E. coli whole cells = experiment: NMN^+-dependent whole-cell biotransformation of KIP; type: cell-based, Escherichia coli
Protocol: NMN^+-dependent whole-cell biotransformation. One biotransformation plasmid expressing XenA, LVR, or ADH with a GDH (selected from pLZ217-pLZ225) and pSM104 containing the glucose transport facilitator were transformed into strain MX102 by electroporation. 4 mL seed cultures of 2×YT media with appropriate antibiotics, 0.1 mM IPTG, and 0.2% (wt/v) glucose were cultured at 30° C. while shaking at 250 rpm for 16 hours. 0.5% (v/v) seed cultures were used to inoculate 150 mL of 2×YT media with appropriate antibiotics, A5 trace metals with cobalt, and 0.5 mM IPTG in a 250 mL baffled shake flask and cultured at 30° C. at 250 rpm. When an OD600˜0.4 was reached, protein expression was induced with 0.1% (w/v) arabinose and cultured for an additional 8 hours at 30° C. while shaking at 250 rpm. Cells were harvested by centrifugation for 15 minutes at 20° C. at 3750 rpm. The supernatant was discarded. Nutrients from the media were removed by washing the pelleted cells 3 times with 50 mL of 100 mM potassium phosphate at pH 7.5. Cells were resuspended to an OD600 of 100 in assay buffer consisting of 100 mM potassium phosphate buffer at pH 7.5, 200 mM D-glucose, 0.5% arabinose, and 0.5 mM IPTG. 1 mL of resuspended cells were added to 20 mL of identical assay buffer in a 250 mL unbaffled, screw-cap shake flask. KIP was spiked into the flask to 5 g/L to initiate the reaction. Flask caps were secured tightly to prevent evaporative loss of substrate or products. Flasks were incubated at 30° C. while shaking at 250 rpm for 48 hours. After 48 hours, 1 mL of culture was pelleted, and the supernatant was used for analysis. 200 μL of supernatant was extracted with an equal volume of ethyl acetate containing 200 mg/L octanol as an internal standard, and the samples were analyzed by gas chromatography. For samples expressing all three conversion enzymes (XenA, LVR, and ADH) on the same vector (pLZ226), the Bs GDH was expressed individually on a separate vector (pSM106, pSM107, or pSM108). The Zm glf gene was also expressed in the system (pSM110).

B1: XenA: enoate reductase XenA from Pseudomonas putida, wild type (protein, listed as Pseudomonas putida)
chain: MSALFEPYTLKDVTLRNRIAIPPMCQYMAEDGLINDWHQVHYASMARGGAGLLVVEATAVAPEGRITPGCAGIWSDAHAQAFVPVVQAIKAAGSVPGIQIAHAGRKASANRPWEGDDHIGADDARGWETIAPSAIAFGAHLPNVPRAMTLDDIARVKQDFVDAARRARDAGFEWIELHFAHGYLGQSFFSEHSNKRTDAYGGSFDNRSRFLLETLAAVREVWPENLPLTARFGVLEYDGRDEQTLEESIELARRFKAGGLDLLSVSVGFTIPETNIPWGPAFMGPIAERVRREAKLPVTSAWGFGTPQLAEAALQANQLDLVSVGRAHLADPHWAYFAAKELGVEKASWTLPAPYAHWLERYR
activity with NMNH as reducing cofactor [1]: comparable activity to the natural cofactors NADH and NADPH; also recorded: comparable activity to the natural cofactors NADPH and NADH

B2: I195R: Bs GDH, same sequence as SEQ ID NO:1 except I195R (SEQ ID NO:2) (protein)
chain: MYPDLKGKVVAITGAASGLGKAMAIRFGKEQAKVVINYYSNKQDPNEVKEEVIKAGGEAVVVQGDVTKEEDVKNIVQTAIKEFGTLDIMINNAGLENPVPSHEMPLKDWDKVIGTNLTGAFLGSREAIKYFVENDIKGNVINMSSVHEVIPWPLFVHYAASKGGIKLMTETLALEYAPKGIRVNNIGPGAINTPRNAEKFADPKQKADVESMIPMGYIGEPEEIAAVAAWLASKEASYVTGITLFADGGMTQYPSFQAGRG
modifications: I195R mutant GDH coding sequence
initial productivity of levodione ([2]; NMN^+ as cycling cofactor, XenA in excess, GDH 11.7 μM): ~0.51 µM/s
improvement of NMN^+-dependent productivity ([2]; versus wild type Bs GDH): 10 fold
Kcat [3]: 1.1 ± 0.27 s⁻¹
Km [3]: 8.9 ± 0.69 mM
improvement of specific activity towards NMN^+ ([3]; versus wild-type Bs GDH): 545 fold
Kcat [4]: 7.3 ± 1.1 s⁻¹
Km [4]: 0.053 ± 0.0092 mM
Expression level [5]: 108.83 μg protein/ml culture
Kcat [6]: 2.5 ± 0.21 s⁻¹
Km [6]: 0.016 ± 0.0008 mM

B3: I195R-A93K-Y39Q-S17E: Bs GDH with I195R, A93K, Y39Q, S17E substitutions (SEQ ID NO:7) (protein)
chain: MYPDLKGKVVAITGAAEGLGKAMAIRFGKEQAKVVINYQSNKQDPNEVKEEVIKAGGEAVVVQGDVTKEEDVKNIVQTAIKEFGTLDIMINNKGLENPVPSHEMPLKDWDKVIGTNLTGAFLGSREAIKYFVENDIKGNVINMSSVHEVIPWPLFVHYAASKGGIKLMTETLALEYAPKGIRVNNIGPGAINTPRNAEKFADPKQKADVESMIPMGYIGEPEEIAAVAAWLASKEASYVTGITLFADGGMTQYPSFQAGRG
modifications: I195R A93K Y39Q S17E mutant GDH coding sequence
cell growth on glucose (E. coli strain MX103; minimal glucose medium, GDH without XenA): did not grow
cell growth on glucose (E. coli strain MX103; minimal medium, glucose sole carbon source, GDH with XenA, listed as GDH Ortho): able to grow; also recorded: supported E. coli growth on glucose
change of NMN^+-dependent catalytic efficiency compared with GDH Triple [3]: modest reduction
Kcat [3]: 1.21 ± 0.09 s⁻¹
Km [3]: 5.9 ± 1 mM
overall specificity switch towards NMN^+ from NADP^+ ([3]; compared to wild type): ~1×10^7 fold
overall specificity switch towards NMN^+ from NAD^+ ([3]; compared to wild type): ~2×10^7 fold
Kcat [4]: 0.025 ± 0.002 s⁻¹
Km [4]: 6.5 mM
drop of catalytic efficiency for NAD^+ upon introducing S17E ([4]; compared with GDH Triple): 220 fold
levodione fraction of total products by mass (E. coli whole cells; XenA, LVR and ADH over-expressed simultaneously): ~92%
LVR- and ADH-catalyzed formation of phorenol or HIP (E. coli whole cells; resting cells with LVR or ADH): minimal levels of phorenol or HIP
levodione produced (E. coli whole cells; resting cells with XenA, 5 g/L KIP, glucose co-substrate): ~1 g/L
Kcat [6]: 0.022 ± 0.013 s⁻¹
Km [6]: 2 mM
drop of catalytic efficiency for NADP^+ upon introducing S17E ([6]; compared with GDH Triple): 890 fold
